For data set [1], the target named is T1, native full length human ADAMTS-13 (wild type).
T1 chain: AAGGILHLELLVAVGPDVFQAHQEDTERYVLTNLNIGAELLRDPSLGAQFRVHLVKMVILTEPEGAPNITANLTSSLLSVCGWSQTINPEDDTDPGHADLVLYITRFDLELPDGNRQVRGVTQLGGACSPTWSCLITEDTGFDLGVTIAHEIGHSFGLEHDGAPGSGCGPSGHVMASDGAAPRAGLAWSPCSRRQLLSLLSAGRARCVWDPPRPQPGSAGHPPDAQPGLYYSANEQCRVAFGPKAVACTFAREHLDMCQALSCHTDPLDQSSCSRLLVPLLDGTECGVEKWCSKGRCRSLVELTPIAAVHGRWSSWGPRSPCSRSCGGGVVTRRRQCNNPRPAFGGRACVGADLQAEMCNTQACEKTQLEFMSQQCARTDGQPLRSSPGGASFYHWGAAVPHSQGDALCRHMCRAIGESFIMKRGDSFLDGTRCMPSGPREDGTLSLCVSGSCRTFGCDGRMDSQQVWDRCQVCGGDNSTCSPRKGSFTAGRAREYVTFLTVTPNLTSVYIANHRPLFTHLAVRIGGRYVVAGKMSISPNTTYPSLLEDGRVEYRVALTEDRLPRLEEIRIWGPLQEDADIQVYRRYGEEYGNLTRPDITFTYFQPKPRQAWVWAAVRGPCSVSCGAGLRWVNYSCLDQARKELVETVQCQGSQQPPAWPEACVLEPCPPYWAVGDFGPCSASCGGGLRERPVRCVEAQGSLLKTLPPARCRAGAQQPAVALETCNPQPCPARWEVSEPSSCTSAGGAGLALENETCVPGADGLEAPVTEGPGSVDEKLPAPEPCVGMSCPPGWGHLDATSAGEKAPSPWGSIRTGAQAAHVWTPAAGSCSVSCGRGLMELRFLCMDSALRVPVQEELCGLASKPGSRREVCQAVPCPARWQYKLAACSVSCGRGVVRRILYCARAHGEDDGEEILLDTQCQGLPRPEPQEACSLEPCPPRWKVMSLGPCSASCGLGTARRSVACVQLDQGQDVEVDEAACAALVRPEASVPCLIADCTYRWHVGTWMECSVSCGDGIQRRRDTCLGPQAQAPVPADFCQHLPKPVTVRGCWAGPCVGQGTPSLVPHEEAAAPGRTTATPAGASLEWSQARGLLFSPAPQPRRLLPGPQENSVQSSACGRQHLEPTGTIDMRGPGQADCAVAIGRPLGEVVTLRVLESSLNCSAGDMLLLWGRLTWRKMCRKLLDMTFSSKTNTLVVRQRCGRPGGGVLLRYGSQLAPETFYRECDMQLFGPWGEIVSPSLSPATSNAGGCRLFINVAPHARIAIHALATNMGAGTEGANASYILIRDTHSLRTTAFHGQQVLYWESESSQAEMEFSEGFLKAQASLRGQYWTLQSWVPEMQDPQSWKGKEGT

For data set [2], the target named is T2, trADAMTS-13^R312K (truncated ADAMTS-13 mutant, Arg312 to Lys).
T2 chain: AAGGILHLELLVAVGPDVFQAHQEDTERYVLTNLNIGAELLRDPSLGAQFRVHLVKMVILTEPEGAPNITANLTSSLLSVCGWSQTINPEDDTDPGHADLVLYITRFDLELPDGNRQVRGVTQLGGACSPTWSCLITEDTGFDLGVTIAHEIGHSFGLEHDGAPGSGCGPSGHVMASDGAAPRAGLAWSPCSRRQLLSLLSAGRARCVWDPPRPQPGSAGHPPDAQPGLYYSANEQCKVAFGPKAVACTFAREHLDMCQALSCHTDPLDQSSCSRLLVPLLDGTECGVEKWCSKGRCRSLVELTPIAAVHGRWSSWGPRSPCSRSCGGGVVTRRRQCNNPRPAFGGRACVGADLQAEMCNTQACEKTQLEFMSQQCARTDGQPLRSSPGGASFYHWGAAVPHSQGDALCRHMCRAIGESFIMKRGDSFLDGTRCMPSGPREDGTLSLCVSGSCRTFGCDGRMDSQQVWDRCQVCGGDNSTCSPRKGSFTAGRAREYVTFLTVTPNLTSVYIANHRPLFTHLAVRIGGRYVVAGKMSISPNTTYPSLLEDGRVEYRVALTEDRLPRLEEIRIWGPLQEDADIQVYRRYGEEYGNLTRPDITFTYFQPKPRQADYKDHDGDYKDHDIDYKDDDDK

Data set [3] concerns the target T3, truncated recombinant human ADAMTS-13 variant (MDTCS), trADAMTS-13 WT.
T3 chain: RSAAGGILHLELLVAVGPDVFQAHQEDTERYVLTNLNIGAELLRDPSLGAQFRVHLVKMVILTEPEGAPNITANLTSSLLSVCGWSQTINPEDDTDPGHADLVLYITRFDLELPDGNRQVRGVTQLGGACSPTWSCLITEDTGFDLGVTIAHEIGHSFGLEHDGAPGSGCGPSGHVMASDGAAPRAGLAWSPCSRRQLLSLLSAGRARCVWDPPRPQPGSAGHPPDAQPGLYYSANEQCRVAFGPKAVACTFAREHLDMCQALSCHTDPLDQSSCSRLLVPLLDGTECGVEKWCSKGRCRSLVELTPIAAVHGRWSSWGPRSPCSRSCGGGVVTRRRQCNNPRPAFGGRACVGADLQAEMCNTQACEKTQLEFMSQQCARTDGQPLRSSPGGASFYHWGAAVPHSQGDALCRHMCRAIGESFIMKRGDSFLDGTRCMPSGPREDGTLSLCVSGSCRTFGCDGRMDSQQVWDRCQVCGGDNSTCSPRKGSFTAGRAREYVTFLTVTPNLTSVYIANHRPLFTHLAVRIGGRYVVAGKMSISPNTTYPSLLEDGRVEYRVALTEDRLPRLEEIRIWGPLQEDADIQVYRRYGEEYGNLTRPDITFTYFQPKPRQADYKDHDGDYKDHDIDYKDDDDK

B1: tissue plasminogen activator (tPA) (protein)
chain: SYQVICRDEKTQMIYQQHQSWLRPVLRSNRVEYCWCNSGRAQCHSVPVKSCSEPRCFNGGTCQQALYFSDFVCQCPEGFAGKCCEIGNSDCYFGNGSAYRGTHSLTESGASCLPWNSMILIGKVYTAQNPSAQALGLGKHNYCRNPDGDAKPWCHVLKNRRLTWEYCDVPSCSTCGLRQYSQPQFRIKGGLFADIASHPWQAAIFAKHRRSPGERFLCGGILISSCWILSAAHCFQERFPPHHLTVILGRTYRVVPGEEEQKFEVEKYIVHKEFDDDTYDNDIALLQLKSDSSRCAQESSVVRTVCLPPADLQLPDWTECELSGYGKHEALSPFYSERLKEAHVRLYPSSRCTSQHLLNRTVTDNMLCAGDTRSGGPQANLHDACQGDSGGPLVCLNDGRMTLVGIISWGLGCGQKDVPGVYTKVTNYLDWIRDNMRP
As for B1, in data set [1], the “ADAMTS-13 activity with or without preincubation with tPA (technozym kit)” value is “the activity of both trADAMTS-13 and ADAMTS-13 WT was reduced in the presence of tPA (FIG. 4B)”. Further, in data set [2], the “cleavage by tPA (Western blot) and residual proteolytic activity on vWF over time” value was “trADAMTS-13^R312K was resistant to cleavage by tPA under conditions where trADAMTS-13 was proteolyzed completely (FIG. 7A) and lost its catalytic activity (FIG. 7B)”; the “residual proteolytic activity on vWF after 6 hours with or without tPA” value was “trADAMTS-13^R312K and trADAMTS-13^V313D variants were resistant to inactivation by tPA”. Besides, in data set [3], the “ADAMTS-13 activity with or without preincubation with tPA (technozym kit)” value was “the activity of both trADAMTS-13 and ADAMTS-13 WT was reduced in the presence of tPA (FIG. 4B)”; the “activity of trADAMTS-13 WT after 4 hr in soluble fibrin (2 uM) or PBS, without or with tPA (100 nM)” value is on record as “The addition of soluble fibrin reversed the tPA-mediated reduction in ADAMTS-13 activity (FIG. 14A)”; the “cleavage by tPA (Western blot) and residual proteolytic activity on vWF over time” value was “trADAMTS-13 was proteolyzed completely (FIG. 7A) and lost its catalytic activity (FIG. 7B)”; the “cleavage of trADAMTS-13 (500 nM) by tPA (100 nM), Western blot” value is “in the presence of tPA, it is cleaved (FIG. 4C)”.

The values above are taken from patent US20230295597.
